Reference: the supplement of paper PMC11246515
± gives the standard deviation of the averaged measurements.

Assay: total protein half-life in vivo (active degradation + dilution); higher = more stable protein
[1] = wild type E. coli NCM3722, growth: C-lim chemostat, doubling time 3 h
[2] = wild type E. coli NCM3722, growth: C-lim chemostat, doubling time 6 h
[3] = wild type E. coli NCM3722, growth: N-lim chemostat, doubling time 6 h
[4] = wild type E. coli NCM3722, growth: P-lim chemostat, doubling time 6 h
[5] = wild type E. coli NCM3722, growth: P-lim chemostat, doubling time 12 h
[6] = E. coli NCM3722 delta-clpP delta-lon delta-hslV, growth: N-lim chemostat, doubling time 6 h
[7] = E. coli NCM3722 delta-clpP, growth: N-lim chemostat, doubling time 6 h
[8] = E. coli NCM3722 delta-hslV, growth: N-lim chemostat, doubling time 6 h
[9] = E. coli NCM3722 delta-lon, growth: N-lim chemostat, doubling time 6 h
[10] = E. coli NCM3722 delta-smpB, growth: N-lim chemostat, doubling time 6 h
[11] = wild type E. coli NCM3722, growth: C-lim chemostat, doubling time 12 h
[12] = wild type E. coli NCM3722, growth: N-lim chemostat, doubling time 12 h

Row | Sequence | total protein half-life in vivo [1] | total protein half-life in vivo [2] | total protein half-life in vivo [3] | total protein half-life in vivo [4] | total protein half-life in vivo [5] | total protein half-life in vivo [6] | total protein half-life in vivo [7] | total protein half-life in vivo [8] | total protein half-life in vivo [9] | total protein half-life in vivo [10] | total protein half-life in vivo [11] | total protein half-life in vivo [12]
1 | MTEIQRLLTETIESLNTREKRDNKPRFSISFIRKHPGLFIGMYVAFFATLAVMLQSETLSGSVWLLVVLFILLNGFFFFDVYPRYRYEDIDVLDFRVCYNGEWYNTRFVPAALVEAILNSPRVADVHKEQLQKMIVRKGELSFYDIFTLARAESTS [P0AAS0] | 0.508 ± 0.022 h | 0.836 h | 2.01 h | 0.489 h | 0.554 h |  |  |  |  |  |  | 
2 | MTLTLNRQLLTSRQILVAFSGGLDSTVLLHQLVQWRTENPGVALRAIHVHHGLSANADAWVTHCENVCQQWQVPLVVERVQLAQEGLGIEAQARQARYQAFARTLLPGEVLVTAQHLDDQCETFLLALKRGSGPAGLSAMAEVSEFAGTRLIRPLLARTRGELVQWARQYDLRWIEDESNQDDSYDRNFLRLRVVPLLQQRWPHFAEATARSAALCAEQESLLDELLADDLAHCQSPQGTLQIVPMLAMSDARRAAIIRRWLAGQNAPMPSRDALVRIWQEVALAREDASPCLRLGAFEIRRYQSQLWWIKSVTGQSENIVPWQTWLQPLELPAGLGSVQLNAGGDIRPPRADEAVSVRFKAPGLLHIVGRNGGRKLKKIWQELGVPPWLRDTTPLLFYGETLIAAAGVFVTQEGVAEGENGVSFVWQKTLS |  | 5.78 ± 0.29 h | 5.27 ± 0.28 h | 6.31 ± 0.15 h | 11.6 ± 1 h | 5.68 ± 0.23 h | 5.01 ± 0.08 h | 4.74 ± 0.42 h | 4.89 ± 0.25 h | 4.44 ± 0.24 h | 11 ± 0.83 h | 8.42 ± 0.81 h
3 | MDLLIVLTYVALAWAVFKIFRIPVNQWTLATAALGGVFLVSGLILLMNYNHPYTFTAQKAVIAIPITPQVTGIVTEVTDKNNQLIQKGEVLFKLDPVRYQARVDRLQADLMTATHNIKTLRAQLTEAQANTTQVSAERDRLFKNYQRYLKGSQAAVNPFSERDIDDARQNFLAQDALVKGSVAEQAQIQSQLDSMVNGEQSQIVSLRAQLTEAKYNLEQTVIRAPSNGYVTQVLIRPGTYAAALPLRPVMVFIPEQKRQIVAQFRQNSLLRLKPGDDAEVVFNALPGQVFHGKLTSILPVVPGGSYQAQGVLQSLTVVPGTDGVLGTIELDPNDDIDALPDGIYAQVAVYSDHFSHVSVMRKVLLRMTSWMHYLYLDH [P0AFV0] |  |  |  |  |  | 3.52 h |  |  |  |  |  | 
4 | MNTLRIGLVSISDRASSGVYQDKGIPALEEWLTSALTTPFELETRLIPDEQAIIEQTLCELVDEMSCHLVLTTGGTGPARRDVTPDATLAVADREMPGFGEQMRQISLHFVPTAILSRQVGVIRKQALILNLPGQPKSIKETLEGVKDAEGNVVVHGIFASVPYCIQLLEGPYVETAPEVVAAFRPKSARRDVSE [P0AF03] | 2.8 ± 0.21 h | 5.83 ± 0.49 h | 4.61 ± 0.27 h | 5.41 ± 0.4 h | 11.3 ± 0.16 h | 4.79 ± 0.77 h | 4.24 ± 0.53 h | 4.594 ± 0.04 h | 5.05 ± 0.59 h | 4.82 ± 0.54 h | 9.32 ± 0.82 h | 8.09 ± 0.46 h
5 | MKVIIVEDEFLAQQELSWLIKEHSQMEIVGTFDDGLDVLKFLQHNRVDAIFLDINIPSLDGVLLAQNISQFAHKPFIVFITAWKEHAVEAFELEAFDYILKPYQESRITGMLQKLEAAWQQQQTSSTPAATVTRENDTINLVKDERIIVTPINDIYYAEAHEKMTFVYTRRESYVMPMNITEFCSKLPPSHFFRCHRSFCVNLNKIREIEPWFNNTYILRLKDLDFEVPVSRSKVKEFRQLMHL [P0AE39] | 2.8 ± 0.42 h | 6 ± 0.71 h | 4.44 ± 0.42 h | 4.93 ± 0.72 h | 9.66 ± 0.46 h | 5.23 ± 0.21 h | 4.51 ± 0.32 h | 4.019 ± 0.0042 h | 4.73 ± 0.72 h | 4.01 ± 0.061 h | 8.85 ± 0.64 h | 7.31 ± 0.66 h
6 | MYTQTLYELSQEAERLLQLSRQQLQLLEKMPLSVPGDDAPQLALPWSQPNIAERHAMLNNELRKISRLEMVLAIVGTMKAGKSTTINAIVGTEVLPNRNRPMTALPTLIRHTPGQKEPVLHFSHVAPIDCLIQQLQQRLRDCDIKHLTDVLEIDKDMRALMQRIENGVAFEKYYLGAQPIFHCLKSLNDLVRLAKALDVDFPFSAYAAIEHIPVIEVEFVHLAGLESYPGQLTLLDTPGPNEAGQPHLQKMLNQQLARASAVLAVLDYTQLKSISDEEVREAILAVGQSVPLYVLVNKFDQQDRNSDDADQVRALISGTLMKGCITPQQIFPVSSMWGYLANRARYELANNGKLPPPEQQRWVEDFAHAALGRRWRHADLADLEHIRHAADQLWEDSLFAQPIQALLHAAYANASLYALRSAAHKLLNYAQQAREYLDFRAHGLNVACEQLRQNIHQIEESLQLLQLNQAQVSGEIKHEIELALTSANHFLRQQQDALKVQLAALFQDDSEPLSEIRTRCETLLQTAQNTISRDFTLRFAELESTLCRVLTDVIRPIEQQVKMELSESGFRPGFHFPVFHGVVPHFNTRQLFSEVISRQEATDEQSTRLGVVRETFSRWLNQPDWGRGNEKSPTETVDYSVLQRALSAEVDLYCQQMAKVLAEQVDESVTAGMNTFFAEFASCLTELQTRLRESLALRQQNESVVRLMQQQLQQTVMTHGWIYTDAQLLRDDIQTLFTAERY [P0DM85] | 2.44 ± 0.21 h |  |  | 3.43 ± 0.63 h | 6.3 ± 0.69 h |  |  |  |  |  | 5.52 ± 1.4 h | 
7 | MKPARVPQTVVAPDCWGDLPWGKLYRKALERQLNPWFTKMYGFHLLKIGNLSAEINCEACAVSHQVNVSAQGMPVQVQADPLHLPFADKSVDVCLLAHTLPWCTDPHRLLREADRVLIDDGWLVISGFNPISFMGLRKLVPVLRKTSPYNSRMFTLMRQLDWLSLLNFEVLHASRFHVLPWNKHGGKLLNAHIPALGCLQLIVARKRTIPLTLNPMKQSKNKPRIRQAVGATRQCRKPQA | 1.91 ± 0.15 h | 4.59 ± 1.2 h | 6.41 h | 5.31 ± 1.1 h | 10.6 ± 2.4 h | 5.49 ± 0.13 h |  | 5.49 ± 0.6 h | 5.76 ± 1 h | 7.25 ± 1 h | 11.5 h | 9.9 ± 3.1 h
8 | MSTPLQGIKVLDFTGVQSGPSCTQMLAWFGADVIKIERPGVGDVTRHQLRDIPDIDALYFTMLNSNKRSIELNTKTAEGKEVMEKLIREADILVENFHPGAIDHMGFTWEHIQEINPRLIFGSIKGFDECSPYVNVKAYENVAQAAGGAASTTGFWDGPPLVSAAALGDSNTGMHLLIGLLAALLHREKTGRGQRVTMSMQDAVLNLCRVKLRDQQRLDKLGYLEEYPQYPNGTFGDAVPRGGNAGGGGQPGWILKCKGWETDPNAYIYFTIQEQNWENTCKAIGKPEWITDPAYSTAHARQPHIFDIFAEIEKYTVTIDKHEAVAYLTQFDIPCAPVLSMKEISLDPSLRQSGSVVEVEQPLRGKYLTVGCPMKFSAFTPDIKAAPLLGEHTAAVLQELGYSDDEIAAMKQNHAI |  |  |  | 5.48 h |  |  |  |  |  |  |  | 
9 | MLSIKDLHVSVEDKAILRGLSLDVHPGEVHAIMGPNGSGKSTLSATLAGREDYEVTGGTVEFKGKDLLALSPEDRAGEGIFMAFQYPVEIPGVSNQFFLQTALNAVRSYRGQETLDRFDFQDLMEEKIALLKMPEDLLTRSVNVGFSGGEKKRNDILQMAVLEPELCILDESDSGLDIDALKVVADGVNSLRDGKRSFIIVTHYQRILDYIKPDYVHVLYQGRIVKSGDFTLVKQLEEQGYGWLTEQQ | 2.88 ± 0.13 h | 5.37 ± 0.23 h | 3.75 ± 0.3 h | 5.47 ± 0.51 h | 9.75 ± 0.2 h | 4.81 ± 0.069 h | 5.52 ± 1.8 h | 4.19 ± 0.79 h | 4.25 ± 0.1 h | 3.63 ± 0.052 h | 10.1 ± 0.62 h | 5.68 ± 0.23 h
